# Measurements reported in PMC12269843, “The molecular basis of T cell receptor recognition of citrullinated tenascin-C presented by HLA-DR4” (The Journal of Biological Chemistry, 2025).
# Where no end group is shown, it is not given here. [ ]: non-standard residue; d: D form. Cit = NC(=O)NCCC[C@H](N)C(=O)O
# Tests used:
# Assay in all cases: fluorescence polarisation; competition: serial dilution of peptide from 500 μM against 20 nM TAMRA-HA for 100 nM HLA-DRB1 protein with 20 nM HLA-DM; 100 mM trisodium citrate pH 5.4, 50 mM NaCl, 5 mM EDTA; 37 °C, read after 24, 48 and 72 h
# [1] = target: HLA-DRB1*01:01 protein (human)
# [2] = target: HLA-DRB1*04:01 protein (HLA-DRA*01:01/HLA-DRB1*04:01) (human)
# [3] = target: HLA-DRB1*04:04 protein (human)
# [4] = target: HLA-DRB1*04:05 protein (human)
# [5] = target: HLA-DRB1*14:02 protein (human)
binder,measurement,setting,value
"D[Cit]Y[Cit]LNYSLPTG [TNC1014,1016cit peptide]",IC50,[1],0.8 µM
same,IC50,[2],1.1 µM
same,IC50,[3],> 300 µM
same,"fold weaker affinity against HLA-DRB1*01:01, *04:01 and *14:02",[4],> 4 fold
same,IC50,[5],1.3 µM
